The results in this text go back to PMC7214410, “A deubiquitylase with an unusually high-affinity ubiquitin-binding domain from the scrub typhus pathogen Orientia tsutsugamushi” (Nature Communications, 2020).

The Kd is the constant that tells how readily two partners part at equilibrium. The low end stands for tighter binding, the high end for weaker binding.

Common to all, as to conditions: both partners purified
The target in assay [1] is T1, untagged ubiquitin (UniProt P0CG48 1-76).
T1 construct: also called mono-ubiquitin; Mono Ub; source: E. coli, purified (heated to 85 °C, SP-Sepharose, Superdex 75)
As to the kind of experiment: ITC. (In general: ITC needs no label: the signal is the heat of the interaction.)

The target of the next assay is T2, 6His-ubiquitin (human, UniProt P0CG48 1-76).
T2 construct: also called His-tagged human ubiquitin; His-tagged ubiquitin; source: E. coli BL21(DE3), purified (Ni-NTA)
Nature of the assay: pull-down; GST-tagged UBD (25 µM) mixed with His-tagged ubiquitin (75 µM) in 25 mM Tris-HCl pH 8.0, 100 mM NaCl, 0.1 mM TCEP; glutathione sepharose 4B, 1 h at 2 °C; eluted with glutathione, Coomassie.

In assay [2] the target is T3, human ubiquitin (His tag cleaved, for the co-crystal) (human, UniProt P0CG48 1-76).
T3 construct: also called free ubiquitin; UbS1; source: E. coli BL21(DE3), purified (Ni-NTA, TEV cleavage, HiTrap S, Superdex 75)
As to the kind of experiment: crystal structure.

Assay [3] deals with T1, untagged ubiquitin. Nature of the assay: ITC. This is another data set of the same source.

B1: OtDUB_(1–177)-C135A (domain or fragment)
chain: MANDQDLSNPEYLYTEDDINQLLKHYLGLDDRISIIQHVALNESLLLKQTLHQVLSDIFSGMQEKAVIPLHTGNNHWVAMAIKKGMNDDIVISYNDPMGVSIDDKVTLINCIKELCPGAKINDLQTVQQTNVYDAGPFVVDNLIKMSQGQPILSTEEAKQQAQNIRQSQVNFLSENR
For B1, the Kd with untagged ubiquitin [1] came to 6.3 ± 0.2 µM.

B2: GST-UBD_(170–259) (domain or fragment)
chain: VNFLSENRMITSAAAALADTLLKNNNRITEGVLVDRIFDNKILSVQEKQQLLNNLLDNHIKENKSLTKESLTRMLASTHFVQQQANVLLN
notes: also called GST-tagged UBD; OtDUBUBD; source: E. coli BL21(DE3), purified (Ni-NTA, GSTrap HP)
For the molecule B2, in the assay with 6His-ubiquitin, the binding result is “binds”.

B3: GST-UBD_(170–259) D204A/D208A (domain or fragment)
chain: VNFLSENRMITSAAAALADTLLKNNNRITEGVLVARIFANKILSVQEKQQLLNNLLDNHIKENKSLTKESLTRMLASTHFVQQQANVLLN
notes: also called charge-neutralizing mutant; source: E. coli BL21(DE3), purified (Ni-NTA, GSTrap HP)
Consider B3, for which the binding result with 6His-ubiquitin is “binds”.

B4: GST-UBD_(170–259) N222A/D226A (domain or fragment)
chain: VNFLSENRMITSAAAALADTLLKNNNRITEGVLVDRIFDNKILSVQEKQQLLANLLANHIKENKSLTKESLTRMLASTHFVQQQANVLLN
notes: as for B3
With B4, in the assay with 6His-ubiquitin, the binding result is “binds”.

B5: GST-UBD_(170–259) F207D (domain or fragment)
chain: VNFLSENRMITSAAAALADTLLKNNNRITEGVLVDRIDDNKILSVQEKQQLLNNLLDNHIKENKSLTKESLTRMLASTHFVQQQANVLLN
notes: source: E. coli BL21(DE3), purified (Ni-NTA, GSTrap HP)
B5: the binding result in the assay with 6His-ubiquitin is given as “binds”.

B6: OtDUB_(1–259) (domain or fragment)
chain: GMANDQDLSNPEYLYTEDDINQLLKHYLGLDDRISIIQHVALNESLLLKQTLHQVLSDIFSGMQEKAVIPLHTGNNHWVAMAIKKGMNDDIVISYNDPMGVSIDDKVTLINCIKELCPGAKINDLQTVQQTNVYDCGPFVVDNLIKMSQGQPILSTEEAKQQAQNIRQSQVNFLSENRMITSAAAALADTLLKNNNRITEGVLVDRIFDNKILSVQEKQQLLNNLLDNHIKENKSLTKESLTRMLASTHFVQQQANVLLN
notes: also called OTT_1962 DUB domain with VR-1/UBD; DUB-UBD segment; source: E. coli BL21(DE3), purified (Ni-NTA, TEV cleavage, HiTrap Q, Superdex 75)
In the case of B6, in assay [2], the binding result is given as “binds”.

B7: OtDUB_(170–264) (the UBD) (domain or fragment)
chain: VNFLSENRMITSAAAALADTLLKNNNRITEGVLVDRIFDNKILSVQEKQQLLNNLLDNHIKENKSLTKESLTRMLASTHFVQQQANVLLNEKFNK
notes: source: E. coli Rosetta DE3, purified (glutathione resin, SEC)
Regarding B7, binding in the assay with untagged ubiquitin [3] was characterised by a dissociation constant (Kd) of 0.0053 ± 0.0039 µM.
